# Measurements published in article PMC4701049 (Biochemistry, 2015).
# Residue numbers refer to the chain shown, from its start. Names and notes keep the numbering of the source.
# B1: Pseudomonas putida WCS358 PupR cytoplasmic anti-sigma domain (PupR-ASD), wild type (domain or fragment)
# chain: GAMGMNGQGATSIPGEVAEQAMHWHLELQEPAVSAATLAACMSWRQAHPLHEHAWQRTQVFAQRLREMRSPGQRPLAHAALRPQQS
# B2: PupR-ASD L61D (domain or fragment, Pseudomonas putida WCS358)
# chain: B1 chain with L65D
# B3: PupR-ASD Q42D (domain or fragment, Pseudomonas putida WCS358)
# chain: B1 chain with Q46D
# B4: PupR-ASD F57D (domain or fragment, Pseudomonas putida WCS358)
# chain: B1 chain with F61D
# B5: PupR-ASD M18D (domain or fragment, Pseudomonas putida WCS358)
# chain: B1 chain with M22D
# B6: PupR-ASD R53D (domain or fragment, Pseudomonas putida WCS358)
# chain: B1 chain with R57D
# B7: PupR-ASD A35D (domain or fragment, Pseudomonas putida WCS358)
# chain: B1 chain with A39D
# B8: PupR-ASD M38D (domain or fragment, Pseudomonas putida WCS358)
# chain: B1 chain with M42D
# B9: PupR-ASD L22D (domain or fragment, Pseudomonas putida WCS358)
# chain: B1 chain with L26D
# Molecular target: the molecule itself
# Test: AUC
row,Protein,Kd
1,B1,10.2 µM
2,B2,> 500 µM
3,B3,18.2 µM
4,B4,> 200 µM
5,B5,226 µM
6,B6,562 µM
7,B7,13.5 µM
8,B8,11.6 µM
9,B9,> 200 µM

# Molecular target: the molecule itself
# Test: SEC
row,Protein,stoichiometry N
1,B1,2
